Measurements: patent US20240376207A1 (JIANGSU HENGRUI PHARMACEUTICALS, published 2024)
Like-named read-outs stand apart in the source and are kept apart here.

T1: human TIGIT recombinant protein (human, UniProt Q495A1 22-141, limits assumed)
T1 construct: construct not described; also called human TIGT recombinant protein
T1 sequence (looked up): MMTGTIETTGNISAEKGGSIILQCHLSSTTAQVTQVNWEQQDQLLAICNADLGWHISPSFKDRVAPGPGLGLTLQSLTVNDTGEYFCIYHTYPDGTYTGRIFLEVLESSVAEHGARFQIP

T2: human TIGIT expressed on cells (human, UniProt Q495A1 22-244)
T2 construct: whole, on cells; also called cells overexpressing human TIGIT
T2 sequence (looked up): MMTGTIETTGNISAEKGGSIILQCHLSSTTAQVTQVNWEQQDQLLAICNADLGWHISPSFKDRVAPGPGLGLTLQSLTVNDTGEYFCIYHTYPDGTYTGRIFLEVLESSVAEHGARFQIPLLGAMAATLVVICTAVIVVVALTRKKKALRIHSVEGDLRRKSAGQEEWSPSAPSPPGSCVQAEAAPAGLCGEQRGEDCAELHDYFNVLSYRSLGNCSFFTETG

T3: human TIGIT antigen (AcroBiosystem, TIT-H52H3) (human, UniProt Q495A1 22-141)
T3 sequence (looked up): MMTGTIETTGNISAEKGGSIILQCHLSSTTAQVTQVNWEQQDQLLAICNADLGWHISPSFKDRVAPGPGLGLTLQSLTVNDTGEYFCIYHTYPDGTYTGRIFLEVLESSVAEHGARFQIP


Tests used:
[1] = target: T1, human TIGIT recombinant protein; assay: competition ELISA; human TIGIT, competitor human PVR
Experimental: (§1) The h-PVRIG-mIgG2a Fc protein (at a concentration of 1 μg/mL) was coated on the 96-well microplate at 100 μL per well, and incubated overnight at 4° C. The plate was washed three times with wash buffer at 250 μL per well. For each wash, the plate was shaken for 10 s to ensure adequate cleaning. A blocking solution was added at 300 μL/well, and the plate was incubated at room temperature for 1 h. The plate was washed three times with wash buffer at 250 μL per well. For each wash, the plate was shaken for 10 s to ensure adequate cleaning. 50 μL of diluted test anti-PVRIG antibody and 50 μL of his-tagged ligand PVRL2 were added to each well, and the plate was incubated at 37° C. for 1 h. The plate was washed three times with wash buffer at 250 μL per well. The HRP-labeled anti-his-tagged secondary antibody (Genscrpit) diluted at 1:2000 was added at 100 μL per well. The plate was incubated at 37° C. for 1 h. The plate was washed three times with wash buffer at 250 μL per well. TMB was added at 100 μL/well, and the plate was incubated in the dark for 15 min. 0.16 M sulfuric acid was added at 50 μL/well. OD values at 450 nm were measured using a Thermo MμtLtiSkanFc microplate reader, and the IC₅₀ values of the anti-PVRIG antibodies blocking the binding of PVRIG to PVRL2 were calculated.
(§2) The experiments were carried out according to the methods of Example 4, Example 5 and Example 6 (corresponding receptors and ligands were replaced with human TIGIT and human PVR), and the results are shown in Table 27.

[2] = target: T2, human TIGIT expressed on cells; assay: FACS, cells overexpressing target
Experimental: (§3) The expression plasmid carrying human or cynomolgus monkey PVRIG gene sequence was transfected into HEK293 cells, and the over-expressing stable transfection monoclonal cell strain was obtained by antibiotic screening and infinite dilution. Overexpressing cells were seeded into a 96-well plate at 2×10⁵ cells/per well. The cells were centrifuged at 300 g for 5 min, the supernatant was then removed, 100 μL of the test antibody was added, and the mixture was incubated at 4° C. for 1 h. The mixture was centrifuged, the supernatant was removed, the plate was washed 3 times with 200 μL of wash buffer (PBS+2% FBS), and then 100 μL of an anti-human IgG secondary antibody (Invitrogen, A-11013) labeled with Alexa Fluor 488 diluted at 1:500 was added. The mixture was incubated at 4° C. for 1 h. The plate was centrifuged, and the supernatant was removed. The plate was washed 3 times with 200 μL of wash buffer (PBS+2% FBS). The cells were resuspended in 100 μL of PBS and tested on a flow cytometer (BD FACS Calibur or BD FACS Canto_II).
as §2

[3] = target: T1, human TIGIT recombinant protein; assay: ELISA, coated antigen
Experimental: (§4) A human, cynomolgus monkey, or mouse PVRIG protein (at a concentration of 1 μg/mL) was coated on a 96-well microplate at 100 μL per well, and incubated overnight at 4° C. The plate was washed three times with wash buffer at 250 μL per well. For each wash, the plate was shaken for 10 s to ensure adequate cleaning. A blocking solution (PBS+0.05% Tween20+1% BSA) was added at 300 μL/well, and the plate was incubated at room temperature for 1 h. The plate was washed three times with wash buffer at 250 μL per well. For each wash, the plate was shaken for 10 s to ensure adequate cleaning. Dilutions of the test anti-PVRIG antibodies were added at 100 μL/well. The plate was incubated at 37° C. for 1 h. The plate was washed three times with wash buffer at 250 μL per well. The […] anti-human IgG secondary antibody (Sigma, A8667) was added at 100 μL per well. The plate was incubated at 37° C. for 1 h. The plate was washed three times with wash buffer at 250 μL per well. TMB was added at 100 μL/well, and the plate was incubated in the dark for 15 min. 0.16 M sulfuric acid was added at 50 μL/well. The OD values at 450 nm were read by using a Thermo MultiSkanFc microplate reader, and the EC₅₀ values of the binding of the anti-PVRIG antibodies to PVRIG were calculated.
as §2

[4] = target: T3, human TIGIT antigen (AcroBiosystem, …); assay: SPR (Biacore X100), antibody captured on Protein A chip, 1:1 fit
Description: The affinity of the humanized bispecific antibodies for human PVRIG, cynomolgus monkey PVRIG and human TIGIT was detected using Biacore. Humanized bispecific antibodies were each captured on a Protein A biosensor chip (GE lifesciences, 29127557) of a Biacore instrument (Biacore X100, GE), and then human PVRIG antigen (AcroBiosystem, PVG-H52H4), cynomolgus monkey PVRIG antigen (SEQ ID NO: 1), or human TIGIT antigen (AcroBiosystem, TIT-H52H3) at a series of concentration gradients each flowed over the chip surface. The reaction signals were detected in real time using a Biacore instrument (Biacore X100, GE) to obtain association and dissociation curves. The data obtained from the experiment were fitted using the (1:1) Binding model with the BiacoreX100 evaluation software 2.0 GE to obtain affinity values (see Table 31).

[5] = target: T4, cynomolgus monkey TIGIT expressed on cells (cynomolgus monkey, UniProt A0A7N9I9V4 89-312); assay: FACS, cells overexpressing target
T4 construct: whole, on cells; also called cells overexpressing cynomolgus monkey TIGIT
Experimental: as §3
(§5) Similarly to Examples 4, 5 and 6, the binding of humanized anti-PVRIG/TIGIT bispecific antibodies to human and cynomolgus monkey TIGIT and blocking of binding of human TIGIT to ligand were detected, where PVRIG protein was replaced with TIGIT and PVRL2 was replaced with PVR.

[6] = target: T2, human TIGIT expressed on cells; assay: FACS, cells overexpressing target; remark: listed apart in the source
Experimental: as §3, §5

[7] = target: T1, human TIGIT recombinant protein; assay: competition ELISA; human TIGIT, competitor human PVR; remark: listed apart in the source
Experimental: as §1, §5

[8] = target: T1, human TIGIT recombinant protein; assay: ELISA, coated antigen; remark: listed apart in the source
Experimental: as §4, §5

[9] = target: cynomolgus monkey TIGIT recombinant protein (cynomolgus monkey, UniProt A0A7N9I9V4 89-209); assay: ELISA, coated antigen
Experimental: as §4, §5

IC50 [1] [nM] | EC50 [2] [nM] | EC50 [3] [nM] | Kd [4] [nM] | koff [4] [s⁻¹] | kon [4] [M⁻¹ s⁻¹] | EC50 [5] [nM] | EC50 [6] [nM] | IC50 [7] [nM] | EC50 [8] [nM] | EC50 [9] [nM] | Binder
0.96 | 1.51 | 0.101 | – | – | – | – | – | – | – | – | anti-PVRIG/TIGIT bispecific antibody 1708-151-1 (bispecific antibody, human IgG4 S228P, kappa) heavy: not shown light: DIQMTQSPSSLSASVGDRVTITCRASENIYSYLAWYQQKPGKSPKLLIYNARTLAEGVPSRFSGSGSGTDFTLTISSLQPEDFATYYCQYHSGSPLPFGGGTKVEIKRTVAAPSVFIFPPSDEQLKSGTASVVCLLNNFYPREAKVQWKVDNALQSGNSQESVTEQDSKDSTYSLSSTLTLSKADYEKHKVYACEVTHQGLSSPVTKSFNRGEC
1.04 | 1.27 | 0.09 | – | – | – | – | – | – | – | – | anti-PVRIG/TIGIT bispecific antibody 1708-151-2 (bispecific antibody, human IgG4 S228P, kappa) heavy: not shown light: DIQMTQSPSSLSASVGDRVTITCRASENIYSYLAWYQQKPGKSPKLLIYNARTLAEGVPSRFSGSGSGTDFTLTISSLQPEDFATYYCQYHSGSPLPFGGGTKVEIKRTVAAPSVFIFPPSDEQLKSGTASVVCLLNNFYPREAKVQWKVDNALQSGNSQESVTEQDSKDSTYSLSSTLTLSKADYEKHKVYACEVTHQGLSSPVTKSFNRGEC
– | – | – | 0.0808 | 0.000113 | 1.39e+06 | 0.005 | 0.005 | 0.812 | 0.135 | 0.105 | humanized anti-PVRIG/TIGIT bispecific antibody 1708-39H2 (bispecific antibody, human IgG4 S228P, kappa) heavy: not shown light: DIQMTQSPSSLSASVGDRVTITCRASENIYSYLAWYQQKPGKSPKLLIYNARTLAEGVPSRFSGSGSGTDFTLTISSLQPEDFATYYCQYHSGSPLPFGGGTKVEIKRTVAAPSVFIFPPSDEQLKSGTASVVCLLNNFYPREAKVQWKVDNALQSGNSQESVTEQDSKDSTYSLSSTLTLSKADYEKHKVYACEVTHQGLSSPVTKSFNRGEC
– | – | – | – | – | – | 0.011 | 0.006 | 1.09 | 0.184 | 0.135 | humanized anti-PVRIG/TIGIT bispecific antibody 1708-151H8 (bispecific antibody, human IgG4 S228P, kappa) heavy: not shown light: DIQMTQSPSSLSASVGDRVTITCRASENIYSYLAWYQQKPGKSPKLLIYNARTLAEGVPSRFSGSGSGTDFTLTISSLQPEDFATYYCQYHSGSPLPFGGGTKVEIKRTVAAPSVFIFPPSDEQLKSGTASVVCLLNNFYPREAKVQWKVDNALQSGNSQESVTEQDSKDSTYSLSSTLTLSKADYEKHKVYACEVTHQGLSSPVTKSFNRGEC
0.62 | 1.92 | 0.069 | – | – | – | – | – | – | – | – | anti-PVRIG/TIGIT bispecific antibody 1708-151-3 (bispecific antibody, human IgG4 S228P, kappa) heavy: not shown light: HVQLVESGGGSVQAGGSLRLSCVASASGFTYRPYCMAWFRQAPGKEREAVAGIDIFGGTTYADSVKGRFTASRDNAGFSLFLQMNDLKPEDTAMYYCAAGDSPDGRCPPLGQGLNYWGQGTQVTVSSGGGGSGGGGSDIQMTQSPSSLSASVGDRVTITCRASENIYSYLAWYQQKPGKSPKLLIYNARTLAEGVPSRFSGSGSGTDFTLTISSLQPEDFATYYCQYHSGSPLPFGGGTKVEIKRTVAAPSVFIFPPSDEQLKSGTASVVCLLNNFYPREAKVQWKVDNALQSGNSQESVTEQDSKDSTYSLSSTLTLSKADYEKHKVYACEVTHQGLSSPVTKSFNRGEC
0.69 | 1 | 0.054 | – | – | – | – | – | – | – | – | anti-PVRIG/TIGIT bispecific antibody 1708-151-4 (bispecific antibody, human IgG4 S228P, kappa) heavy: not shown light: DIQMTQSPSSLSASVGDRVTITCRASENIYSYLAWYQQKPGKSPKLLIYNARTLAEGVPSRFSGSGSGTDFTLTISSLQPEDFATYYCQYHSGSPLPFGGGTKVEIKRTVAAPSVFIFPPSDEQLKSGTASVVCLLNNFYPREAKVQWKVDNALQSGNSQESVTEQDSKDSTYSLSSTLTLSKADYEKHKVYACEVTHQGLSSPVTKSFNRGECGGGGSGGGGSHVQLVESGGGSVQAGGSLRLSCVASASGFTYRPYCMAWFRQAPGKEREAVAGIDIFGGTTYADSVKGRFTASRDNAGFSLFLQMNDLKPEDTAMYYCAAGDSPDGRCPPLGQGLNYWGQGTQVTVSS
